Experimental data from patent publication US6432922 (CORVAS INTERNATIONAL, dated 2002).
“And” between values parts separate entries of the source, which are not always exact repeats. Equal values may be shown once. Non-standard residues stand in square brackets, D forms with d. Primed or numbered codes have the meaning given here. No end group written: not given here. *: point of attachment. cyclohexylmethylazacarbonyl = cyclohexylmethylazacarbonyl N-terminal cap, introduced with cyclohexylmethyl isocyanate, O=C(NCC1CCCCC1)*; benzylazacarbonyl = benzylazacarbonyl N-terminal cap (benzylaminocarbonyl), introduced with benzyl isocyanate, O=C(NCc1ccccc1)*; Argininal = arginine aldehyde, N=C(N)NCCC[C@@H](C=O)N*; argininal = arginine aldehyde, N=C(N)NCCC[C@@H](C=O)N*; aldehyde′ = argininal (arginine aldehyde) C-terminus; Propanoyl(3-cHex) = O=C(CCC1CCCCC1)*; Isobutyloxycarbonyl = CC(C)COC(=O)*; d(aThr) = C[C@@H](O)[C@@H](N)C(=O)O; cisHyp = O=C(O)[C@@H]1C[C@H](O)CN1; Isopropoxycarbonyl = CC(C)OC(=O)*; 3‑phenylpropyl = c1ccc(CCC*)cc1; d(hSer) = N[C@H](CCO)C(=O)O; Isovaleryl = CC(C)CC(=O)*; NMeA = CN[C@@H](C)C(=O)O; dAbu = CC[C@@H](N)C(=O)O; dDap = NC[C@@H](N)C(=O)O; Cbz = O=C(OCc1ccccc1)*; Sar = CNCC(=O)O

Experiments:
Test in all cases: cell-based or functional assay
[1] = target: Urokinase (Abbokinase), manufactured by Abbott Laboratories (UniProt P00749 156-431)
[2] = target: Human rt-PA (Activase), obtained from Genentech Inc. (human, UniProt P00750 36-562)
[3] = target: Purified human plasmin, obtained from Enzyme Research Laboratories, Inc. (human, UniProt P00747 97-810, limits assumed)
Purified human plasmin, obtained from Enzyme Research Laboratories, Inc., sequence (P00747 97-810 limits assumed): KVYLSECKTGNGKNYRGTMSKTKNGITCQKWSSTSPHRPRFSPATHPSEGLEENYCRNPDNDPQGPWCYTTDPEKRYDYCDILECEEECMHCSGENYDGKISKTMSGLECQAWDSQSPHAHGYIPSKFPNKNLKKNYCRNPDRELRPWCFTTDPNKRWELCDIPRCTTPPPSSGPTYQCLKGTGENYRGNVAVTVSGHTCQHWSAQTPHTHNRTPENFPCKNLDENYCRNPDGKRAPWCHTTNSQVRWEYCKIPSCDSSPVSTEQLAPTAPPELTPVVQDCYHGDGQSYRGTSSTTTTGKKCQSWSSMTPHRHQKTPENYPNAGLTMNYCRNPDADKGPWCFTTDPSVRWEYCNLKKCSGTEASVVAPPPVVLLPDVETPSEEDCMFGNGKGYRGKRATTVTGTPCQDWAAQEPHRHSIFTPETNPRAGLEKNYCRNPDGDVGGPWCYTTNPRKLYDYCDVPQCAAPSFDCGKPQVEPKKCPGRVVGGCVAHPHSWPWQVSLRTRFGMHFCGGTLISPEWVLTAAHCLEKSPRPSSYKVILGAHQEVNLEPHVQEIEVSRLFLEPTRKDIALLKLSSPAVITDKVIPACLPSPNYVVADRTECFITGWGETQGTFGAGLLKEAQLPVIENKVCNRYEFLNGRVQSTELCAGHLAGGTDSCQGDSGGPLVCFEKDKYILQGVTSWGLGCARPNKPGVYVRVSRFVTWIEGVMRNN

Human rt-PA (Activase), obtained from Genentech Inc., sequence (P00750 36-562 limits assumed): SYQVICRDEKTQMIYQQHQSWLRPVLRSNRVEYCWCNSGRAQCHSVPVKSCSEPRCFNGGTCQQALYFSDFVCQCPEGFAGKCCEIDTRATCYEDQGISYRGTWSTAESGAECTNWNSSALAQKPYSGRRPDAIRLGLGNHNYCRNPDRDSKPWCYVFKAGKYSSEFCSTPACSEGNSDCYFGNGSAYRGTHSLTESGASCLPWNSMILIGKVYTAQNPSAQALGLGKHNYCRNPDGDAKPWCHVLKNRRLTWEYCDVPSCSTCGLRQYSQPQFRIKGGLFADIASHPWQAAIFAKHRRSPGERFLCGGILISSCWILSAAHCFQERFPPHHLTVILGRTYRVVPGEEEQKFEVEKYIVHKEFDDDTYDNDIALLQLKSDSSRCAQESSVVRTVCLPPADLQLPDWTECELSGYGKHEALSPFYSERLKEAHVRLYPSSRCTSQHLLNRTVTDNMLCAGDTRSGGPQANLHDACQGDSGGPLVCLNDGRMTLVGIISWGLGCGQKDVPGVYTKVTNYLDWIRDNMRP

B1: 2-ethylhexyloxy-carbonyl-D-seryl-alanyl-argininal (peptide)
peptide: {2‑ethylhexyloxycarbonyl}-[dS]-Ala-Arg-{aldehyde′}
Q: Which results are given for B1?
A: IC50 [1]: < 100 nM; IC50 [2]: > 2500 nM

B2: 3-cyclohexylpropionyl-D-seryl-alanyl-argininal (peptide)
peptide: {Propanoyl(3-cHex)}-[dS]-Ala-Arg-{aldehyde′}
Q: Which IC50 [3] does the source give for B2 here?
A: > 2500 nM

Q: And the IC50 [2]?
A: > 2500 nM

B3: benzyloxycarbonyl-D-allothreonyl-alanyl-argininal (peptide)
peptide: Cbz-[d(aThr)]-Ala-Arg-{aldehyde′}
Q: With B3 as the binder, how does the IC50 [1] read?
A: < 100 nM

Q: And the IC50 [2]?
A: > 2500 nM

B4: n-butyloxycarbonyl-D-seryl-alanyl-argininal (peptide)
peptide: {n‑butyloxycarbonyl}-[dS]-Ala-[argininal]
Q: B4 was tested. Which IC50 [1] did it give?
A: < 100 nM

Q: And the IC50 [2]?
A: > 2500 nM

B5: benzyloxycarbonyl-D-seryl-L-cis-4-hydroxyprolyl-argininal (peptide)
peptide: Cbz-[dS]-[cisHyp]-Arg-{aldehyde′}
Q: B5 was tested. Which IC50 [1] did it give?
A: < 100 nM

Q: What about the IC50 [2] of the same binder?
A: > 2500 nM

B6: benzyloxycarbonyl-D-seryl-L-seryl-argininal (peptide)
peptide: Cbz-[dS]-Ser-Arg-{aldehyde′}
Q: B6 was tested. Which IC50 [1] did it give?
A: ≥ 100 nM and ≤ 250 nM

Q: And the IC50 [2]?
A: > 2500 nM

B7: benzyloxycarbonyl-D-allothreonyl-N-methylalanyl-argininal (peptide)
peptide: Cbz-[d(aThr)]-[NMeA]-Arg-{aldehyde′}
Q: How did the IC50 [1] turn out when B7 was run?
A: ≥ 100 nM and ≤ 250 nM

B8: N-α-(3-phenylpropyl)-D-seryl-alanyl-argininal, trifluoroacetate salt (peptide)
peptide: {3‑phenylpropyl}-[dS]-Ala-Arg-{aldehyde′}
modifications: also: trifluoroacetate salt
Q: How did the IC50 [1] turn out when B8 was run?
A: < 100 nM

Q: And the IC50 [2]?
A: > 2500 nM

B9: methyloxycarbonyl-D-seryl-alanyl-argininal (peptide)
peptide: methyloxycarbonyl-[dS]-Ala-[argininal]
Q: B9 was tested. Which IC50 [1] did it give?
A: < 100 nM

Q: And the IC50 [2]?
A: > 2500 nM

B10: 3-phenylpropylsulfonyl-D-seryl-alanyl-argininal (peptide)
peptide: {3‑phenylpropylsulfonyl}-[dS]-Ala-Arg-{aldehyde′}
Q: What does the source list for B10?
A: IC50 [1]: < 100 nM; IC50 [2]: > 2500 nM

B11: (-)menthyloxy-carbonyl-D-seryl-alanyl-argininal (peptide)
peptide: {(−)menthyloxycarbonyl}-[dS]-Ala-[Argininal]
Q: What does the source list for B11?
A: IC50 [1]: < 100 nM; IC50 [2]: > 2500 nM

B12: 2-phenylethylsulfonyl-D-seryl-alanyl-argininal (peptide)
peptide: {2‑phenylethylsulfonyl}-[dS]-Ala-Arg-{aldehyde′}
Q: Which results are given for B12?
A: IC50 [1]: < 100 nM; IC50 [2]: > 2500 nM

B13: benzyloxycarbonyl-D-seryl-S-methylcysteinyl-argininal (peptide)
peptide: Cbz-[dS]-Cys(Me)-Arg-{aldehyde′}
Q: What does the source list for B13?
A: IC50 [1]: ≥ 100 nM and ≤ 250 nM; IC50 [2]: > 2500 nM

B14: benzyloxycarbonyl-seryl-alanyl-argininal (peptide)
peptide: Cbz-Ser-Ala-[argininal]
Q: With B14 as the binder, how does the IC50 [2] read?
A: > 2500 nM

B15: isopropyloxycarbonyl-D-seryl-alanyl-argininal (peptide)
peptide: Isopropoxycarbonyl-[dS]-Ala-[argininal]
Q: Which IC50 [1] does the source give for B15 here?
A: < 100 nM

Q: What about the IC50 [3] of the same binder?
A: > 2500 nM

Q: What about the IC50 [2] of the same binder?
A: > 2500 nM

B16: trans-β-Styrenesulfonyl-D-seryl-L-alanyl-argininal (peptide)
peptide: {trans‑β‑styrenesulfonyl}-[dS]-Ala-[argininal]
Q: For B16, which IC50 [1] is on record?
A: < 100 nM

Q: What about the IC50 [2] of the same binder?
A: > 2500 nM

B17: isovaleryl-D-seryl-alanyl-argininal (peptide)
peptide: Isovaleryl-[dS]-Ala-[argininal]
Q: B17 was tested. Which IC50 [3] did it give?
A: > 2500 nM

Q: What about the IC50 [2] of the same binder?
A: > 2500 nM

B18: Isobutyloxycarbonyl-D-seryl-L-alanyl-argininal (peptide)
peptide: isobutyloxycarbonyl-[dS]-Ala-[Argininal]
modifications: not fully specified (C-terminus); printed as i-Butoxycarbonyl-D-Ser-L-Ala-Argininal; also: trifluoroacetate salt
Q: Which results are given for B18?
A: IC50 [1]: < 100 nM; IC50 [2]: > 2500 nM

B19: phenoxycarbonyl-D-seryl-alanyl-argininal (peptide)
peptide: phenoxycarbonyl-[dS]-Ala-[argininal]
Q: What does the source list for B19?
A: IC50 [1]: < 100 nM; IC50 [2]: > 2500 nM

B20: cyclohexylmethylazacarbonyl-D-seryl-alanyl-argininal (peptide)
peptide: cyclohexylmethylazacarbonyl-[dS]-Ala-[argininal]
Q: With B20 as the binder, how does the IC50 [1] read?
A: ≥ 100 nM and ≤ 250 nM

Q: And the IC50 [3]?
A: > 2500 nM

Q: And the IC50 [2]?
A: > 2500 nM

B21: benzyloxycarbonyl-D-threonyl-alanyl-argininal (peptide)
peptide: Cbz-[dT]-Ala-[argininal]
Q: Which IC50 [2] does the source give for B21 here?
A: > 2500 nM

B22: N-α-N-β-dibenzyloxycarbonyl-D-2,3-diaminopropionyl-alanyl-argininal (peptide)
peptide: Cbz-[dDap](Cbz)-Ala-[argininal]
Q: What does the source list for B22?
A: IC50 [1]: ≥ 100 nM and ≤ 250 nM; IC50 [3]: ≥ 100 nM and ≤ 250 nM; IC50 [2]: > 2500 nM

B23: benzyloxycarbonyl-D-seryl-2-glycyl-argininal (peptide)
peptide: Cbz-[dS]-Gly-Arg-{aldehyde′}
Q: What does the source list for B23?
A: IC50 [1]: ≥ 100 nM and ≤ 250 nM; IC50 [2]: > 2500 nM

B24: benzyloxycarbonyl-D-alanyl-alanyl-argininal (peptide)
peptide: Cbz-[dA]-Ala-Arg-{aldehyde′}
Q: For B24, which IC50 [1] is on record?
A: ≥ 100 nM and ≤ 250 nM

B25: N-α-benzyloxycarbonyl-N-β-2-phenylethylcarbonyl-D-2,3-diaminopropionyl-alanyl-argininal (peptide)
peptide: Cbz-[dDap](2‑phenylethylcarbonyl)-Ala-[argininal]
Q: B25 was tested. Which IC50 [2] did it give?
A: > 2500 nM

B26: benzyloxycarbonyl-D-seryl-sarcosyl-argininal (peptide)
peptide: Cbz-[dS]-[Sar]-[argininal]
Q: For B26, which IC50 [2] is on record?
A: > 2500 nM

B27: benzyloxycarbonyl-threonyl-alanyl-argininal (peptide)
peptide: Cbz-Thr-Ala-[argininal]
Q: Which IC50 [1] does the source give for B27 here?
A: ≥ 100 nM and ≤ 250 nM

Q: And the IC50 [2]?
A: > 2500 nM

B28: benzylazacarbonyl-D-seryl-alanyl-argininal (peptide)
peptide: benzylazacarbonyl-[dS]-Ala-Arg-{aldehyde′}
Q: B28 was tested. Which IC50 [1] did it give?
A: ≥ 100 nM and ≤ 250 nM

Q: What about the IC50 [3] of the same binder?
A: > 2500 nM

Q: What about the IC50 [2] of the same binder?
A: > 2500 nM

B29: fluorenylmethyloxycarbonyl-D-seryl-alanyl-argininal (peptide)
peptide: fluorenylmethyloxycarbonyl-[dS]-Ala-[argininal]
Q: With B29 as the binder, how does the IC50 [1] read?
A: < 100 nM

Q: And the IC50 [2]?
A: > 2500 nM

B30: benzyloxycarbonyl-D-homoseryl-prolyl-argininal (peptide)
peptide: Cbz-[d(hSer)]-Pro-[argininal]
Q: Which results are given for B30?
A: IC50 [1]: ≥ 100 nM and ≤ 250 nM; IC50 [3]: < 100 nM; IC50 [2]: > 2500 nM

B31: Benzylsulfonyl-D-Ser-Ala-Arg-al, Trifluoroacetate Salt (peptide)
peptide: benzylsulfonyl-[dS]-Ala-Arg-{aldehyde′}
modifications: also: trifluoroacetate salt
Q: How did the IC50 [1] turn out when B31 was run?
A: < 100 nM

Q: What about the IC50 [2] of the same binder?
A: > 2500 nM

B32: benzyloxycarbonyl-D-allothreonyl-sarcosyl-argininal (peptide)
peptide: Cbz-[d(aThr)]-[Sar]-Arg-{aldehyde′}
Q: For B32, which IC50 [1] is on record?
A: ≥ 100 nM and ≤ 250 nM

B33: i-butoxycarbonyl-D-Ser-Ala-Arg-CO-phenethylamide, trifluoroacetate salt (peptide)
peptide: Isobutyloxycarbonyl-[dS]-Ala-Arg-{CO‑phenethylamide}
modifications: also: trifluoroacetate salt
Q: With B33 as the binder, how does the IC50 [1] read?
A: ≥ 100 nM and ≤ 250 nM

Q: What about the IC50 [2] of the same binder?
A: > 2500 nM

B34: (+)menthyloxy-carbonyl-D-seryl-alanyl-argininal (peptide)
peptide: {(+)menthyloxycarbonyl}-[dS]-Ala-[Argininal]
Q: Which results are given for B34?
A: IC50 [1]: < 100 nM; IC50 [2]: > 2500 nM

B35: N-α-benzyloxycarbonyl-N-β-methyloxycarbonyl-D-2,3-diaminopropionyl-alanyl-argininal (peptide)
peptide: Cbz-[dDap](methyloxycarbonyl)-Ala-[argininal]
Q: B35 was tested. Which IC50 [2] did it give?
A: > 2500 nM

B36: benzyloxycarbonyl-D-threonyl-prolyl-argininal (peptide)
peptide: Cbz-[dT]-Pro-[argininal]
Q: What does the source list for B36?
A: IC50 [1]: ≥ 100 nM and ≤ 250 nM; IC50 [2]: > 2500 nM

B37: cyclohexylmethyloxycarbonyl-D-seryl-alanyl-argininal (peptide)
peptide: cyclohexylmethyloxycarbonyl-[dS]-Ala-[argininal]
Q: B37 was tested. Which IC50 [1] did it give?
A: < 100 nM

Q: And the IC50 [2]?
A: > 2500 nM

B38: benzyloxycarbonyl-D-2-aminobutyryl-L-alanyl-argininal (peptide)
peptide: Cbz-[dAbu]-Ala-[argininal]
Q: With B38 as the binder, how does the IC50 [2] read?
A: > 2500 nM

B39: 2-naphthyloxy-carbonyl-D-seryl-alanyl-argininal (peptide)
peptide: {2‑naphthyloxycarbonyl}-[dS]-Ala-Arg-{aldehyde′}
Q: For B39, which IC50 [1] is on record?
A: < 100 nM

Q: And the IC50 [2]?
A: > 2500 nM

B40: benzyloxycarbonyl-D-seryl-alanyl-argininal (peptide)
peptide: Cbz-[dS]-Ala-[argininal]
Q: How did the IC50 [1] turn out when B40 was run?
A: < 100 nM

B41: Benzenesufonyl-D-Ser-L-Ala-L-Arg-al, Trifluoroacetate Salt (peptide)
peptide: benzenesulfonyl-[dS]-Ala-Arg-{aldehyde′}
modifications: also: trifluoroacetate salt
Q: Which results are given for B41?
A: IC50 [1]: < 100 nM; IC50 [2]: > 2500 nM

B42: benzyloxycarbonyl-D-seryl-prolyl-argininal (peptide)
peptide: Cbz-[dS]-Pro-[argininal]
Q: Which results are given for B42?
A: IC50 [1]: < 100 nM; IC50 [2]: > 2500 nM
